The values below come from patent publication US20050031628A1.

Test [1] concerns the target antigen binding receptors on maturing human monocyte-derived dendritic cells. In words: flow cytometry, maturing dendritic cells loaded with 10 µg/ml HBV S1/S2. (In general: Flow cytometry measures light scatter and fluorescence of single cells or particles in a stream.)
The target is the same in test [2]. In words: flow cytometry, 90 µg/mL, 1 h at 4 C, dendritic cells of day 2 of culture, F(ab')2 goat anti-mouse Alexa-488.
For test [3] the target is unchanged. In words: flow cytometry, 90 µg/mL, 1 h at 4 C, dendritic cells of day 3 of culture, F(ab')2 goat anti-mouse Alexa-488.
The target is the same in test [4]. The test can be described thus: flow cytometry, 90 µg/mL, 1 h at 4 C, dendritic cells of day 4 of culture, F(ab')2 goat anti-mouse Alexa-488.
For test [5] the target is unchanged. The test can be described thus: flow cytometry, 90 µg/mL, 1 h at 4 C, dendritic cells of day 1 of culture, F(ab')2 goat anti-mouse Alexa-488.

On to HBV S1/S2 expressed in E. coli, for which, in test [1], the % Specific positive cells was 12.2% and the Relative MFI was determined as 3.9.
In test [1], “HBV S1/S2 expressed in High Five insect cells (baculovirus)” yielded a % Specific positive cells of 69.9% and a Relative MFI of 40.3.
Take murine IgG2a (G155-178) (antibody): the % Specific positive dendritic cells stood at 17.4% in test [2], 14.3% in test [3], 13.5% in test [4] and 28% in test [5].
